Data reported in patent US20180155451A1 (published 2018).

T1: FcγRIIa H (FcγRIIa, type H allotype, His at position 131), extracellular domain with C-terminal His tag (human, UniProt P12318 34-217)
T1 construct: extracellular domain; Soluble receptor expressed in FreeStyle293 cells; analyte in Biacore; also called FcgRIIa H; 2aH; not shown: C-terminal His tag
T1 sequence (looked up): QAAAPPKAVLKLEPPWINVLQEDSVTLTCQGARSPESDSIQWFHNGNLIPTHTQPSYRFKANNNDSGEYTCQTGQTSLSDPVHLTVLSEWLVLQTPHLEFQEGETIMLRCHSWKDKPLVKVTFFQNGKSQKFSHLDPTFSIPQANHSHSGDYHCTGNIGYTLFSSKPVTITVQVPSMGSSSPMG

T2: FcγRIIb, extracellular domain with C-terminal His tag (human, UniProt P31994 43-217)
T2 construct: extracellular domain; Soluble receptor expressed in FreeStyle293 cells; analyte in Biacore; also called FcgRIIb; 2b; not shown: C-terminal His tag
T2 sequence (looked up): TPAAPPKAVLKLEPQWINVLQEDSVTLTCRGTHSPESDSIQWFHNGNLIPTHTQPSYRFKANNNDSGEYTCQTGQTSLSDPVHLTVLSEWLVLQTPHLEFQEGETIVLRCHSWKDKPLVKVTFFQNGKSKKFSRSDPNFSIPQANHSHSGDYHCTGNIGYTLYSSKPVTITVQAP

T3: FcγRIIb (human, UniProt P31994 43-217)
T3 construct: extracellular domain; Soluble extracellular domain with C-terminal His tag, used as analyte in Biacore; also called FcgRIIb; 2b; not shown: His tag attached to the C terminus
T3 sequence (looked up): T2 sequence (looked up)

T4: FcγRIIb, extracellular domain with C-terminal His tag (human, UniProt P31994 43-217)
T4 construct: extracellular domain; soluble receptor used as Biacore analyte; also called 2b; FcgRIIb
T4 sequence (looked up): T2 sequence (looked up)

B1: GpH7-A5/GpH7-B3 variant Y300_03V/GpL16-k0 (antibody, human IgG1, kappa)
heavy 1: not shown
heavy 2: not shown
light: DIVMTQSPLSLPVTPGEPASISCQASESLVHSNRNTYLHWYLQKPGQSPQLLIYKVSNRFSGVPDRFSGSGSGTDFTLKISRVEAEDVGVYYCSQNTHVPPTFGQGTKVEIERTVAAPSVFIFPPSDEQLKSGTASVVCLLNNFYPREAKVQWKVDNALQSGNSQESVTEQDSKDSTYSLSSTLTLSKADYEKHKVYACEVTHQGLSSPVTKSFNRGEC
notes: Heterodimerized IgG1; mutation only in the GpH7-B3 chain; also called He Ab
B2: GpH7-A5/GpH7-B3 variant Y300_07I/GpL16-k0 (antibody, human IgG1, kappa)
heavy 1: not shown
heavy 2: not shown
light: B1 light
notes: as for B1
B3: GpH7-A5/GpH7-B3 variant S239_06M/GpL16-k0 (antibody, human IgG1, kappa)
heavy 1: not shown
heavy 2: not shown
light: B1 light
notes: Heterodimerized IgG1; mutation in the GpH7-B3 H chain only; also called He Ab
B4: heterodimerized antibody GpH7-A5/GpH7-B3 variant V266_11K/GpL16-k0 (antibody, human IgG1, kappa)
heavy 1: not shown
heavy 2: not shown
light: B1 light
notes: He Ab: anti-glypican-3 IgG1, alteration in one H chain only; also called He Ab
B5: heterodimerized antibody GpH7-A5/GpH7-B3 variant V266_05P/GpL16-k0 (antibody, human IgG1, kappa)
heavy 1: not shown
heavy 2: not shown
light: B1 light
notes: as for B4
B6: heterodimerized antibody GpH7-A5/GpH7-B3 variant S267_11K/GpL16-k0 (antibody, human IgG1, kappa)
heavy 1: not shown
heavy 2: not shown
light: B1 light
notes: as for B4
B7: GpH7-A5/GpH7-B3 variant S239_03V/GpL16-k0 (antibody, human IgG1, kappa)
heavy 1: not shown
heavy 2: not shown
light: B1 light
notes: as for B3
B8: GpH7-A5/GpH7-B3 variant P238_20W/GpL16-k0 (antibody, human IgG1, kappa)
heavy 1: not shown
heavy 2: not shown
light: B1 light
notes: as for B3
B9: GpH7-A5/GpH7-B3 variant G237_13S/GpL16-k0 (antibody, human IgG1, kappa)
heavy 1: not shown
heavy 2: not shown
light: B1 light
notes: as for B3
B10: GpH7-A5/GpH7-B3 variant N325_07I/GpL16-k0 (antibody, human IgG1, kappa)
heavy 1: not shown
heavy 2: not shown
light: B1 light
notes: as for B3
B11: GpH7-A5/GpH7-B3 variant G236_10E/GpL16-k0 (antibody, human IgG1, kappa)
heavy 1: not shown
heavy 2: not shown
light: B1 light
notes: as for B3
B12: GpH7-A5/GpH7-B3 variant N325_04F/GpL16-k0 (antibody, human IgG1, kappa)
heavy 1: not shown
heavy 2: not shown
light: B1 light
notes: as for B3
B13: GpH7-A5/GpH7-B3 variant P238_16H/GpL16-k0 (antibody, human IgG1, kappa)
heavy 1: not shown
heavy 2: not shown
light: B1 light
notes: as for B3
B14: GpH7-A5/GpH7-B3 variant S239_05P/GpL16-k0 (antibody, human IgG1, kappa)
heavy 1: not shown
heavy 2: not shown
light: B1 light
notes: as for B3
B15: GpH7-A5/GpH7-B3 variant P238_19Q/GpL16-k0 (antibody, human IgG1, kappa)
heavy 1: not shown
heavy 2: not shown
light: B1 light
notes: as for B3
B16: GpH7-A5/GpH7-B3 variant L234_20W/GpL16-k0 (antibody, human IgG1, kappa)
heavy 1: not shown
heavy 2: not shown
light: B1 light
notes: as for B3
B17: GpH7-A5/GpH7-B3 variant N325_03V/GpL16-k0 (antibody, human IgG1, kappa)
heavy 1: not shown
heavy 2: not shown
light: B1 light
notes: as for B3
B18: GpH7-A5/GpH7-B3 variant Y300_06M/GpL16-k0 (antibody, human IgG1, kappa)
heavy 1: not shown
heavy 2: not shown
light: B1 light
notes: as for B1
B19: GpH7-A5/GpH7-B3 variant Y300_11K/GpL16-k0 (antibody, human IgG1, kappa)
heavy 1: not shown
heavy 2: not shown
light: B1 light
notes: as for B1
B20: heterodimerized antibody GpH7-A5/GpH7-B3 variant S267_12R/GpL16-k0 (antibody, human IgG1, kappa)
heavy 1: not shown
heavy 2: not shown
light: B1 light
notes: as for B4
B21: GpH7-A5/GpH7-B3 variant Y300_08L/GpL16-k0 (antibody, human IgG1, kappa)
heavy 1: not shown
heavy 2: not shown
light: B1 light
notes: as for B1
B22: GpH7-A5/GpH7-B3 variant S239_07I/GpL16-k0 (antibody, human IgG1, kappa)
heavy 1: not shown
heavy 2: not shown
light: B1 light
notes: as for B3
B23: GpH7-A5/GpH7-B3 variant N325_08L/GpL16-k0 (antibody, human IgG1, kappa)
heavy 1: not shown
heavy 2: not shown
light: B1 light
notes: as for B3
B24: GpH7-A5/GpH7-B3 variant N325_06M/GpL16-k0 (antibody, human IgG1, kappa)
heavy 1: not shown
heavy 2: not shown
light: B1 light
notes: as for B3
B25: GpH7-A5/GpH7-B3 variant A327_12R/GpL16-k0 (antibody, human IgG1, kappa)
heavy 1: not shown
heavy 2: not shown
light: B1 light
notes: position is EU numbering; also called He Ab
B26: GpH7-A5/GpH7-B3 variant L328_12R/GpL16-k0 (antibody, human IgG1, kappa)
heavy 1: not shown
heavy 2: not shown
light: B1 light
notes: as for B25
B27: GpH7-A5/GpH7-B3 variant L328_11K/GpL16-k0 (antibody, human IgG1, kappa)
heavy 1: not shown
heavy 2: not shown
light: B1 light
notes: as for B25
B28: GpH7-A5/GpH7-B3 variant L235_04F/GpL16-k0 (antibody, human IgG1, kappa)
heavy 1: not shown
heavy 2: not shown
light: B1 light
notes: as for B3
B29: GpH7-A5/GpH7-B3 variant N325_01G/GpL16-k0 (antibody, human IgG1, kappa)
heavy 1: not shown
heavy 2: not shown
light: B1 light
notes: as for B3
B30: GpH7-A5/GpH7-B3 variant A327_01G/GpL16-k0 (antibody, human IgG1, kappa)
heavy 1: not shown
heavy 2: not shown
light: B1 light
notes: as for B3

How the values were obtained:
[1] = target: T1, FcγRIIa H (FcγRIIa, type H allotype, …); assay: SPR (Biacore), captured antibody, FcγR as analyte
[2] = target: T2, FcγRIIb, extracellular domain with …; assay: SPR (Biacore), captured antibody, FcγR as analyte
[3] = target: T1, FcγRIIa H (FcγRIIa, type H allotype, …); assay: ratio of He/Con_2aH to He/Con_2b (FcγRIIa H over FcγRIIb), SPR
[4] = target: T3, FcγRIIb; assay: SPR (Biacore), antibody captured on antigen peptide, FcγR as analyte; relative to GpH7-A5/GpH7-B3/GpL16-k0 = 100
[5] = target: T5, FcγRIa (human, UniProt P12314 16-292); assay: as above
T5 construct: extracellular domain; Soluble extracellular domain with C-terminal His tag, used as analyte in Biacore; also called FcgRI; 1a; not shown: His tag attached to the C terminus
T5 sequence (P12314 16-292): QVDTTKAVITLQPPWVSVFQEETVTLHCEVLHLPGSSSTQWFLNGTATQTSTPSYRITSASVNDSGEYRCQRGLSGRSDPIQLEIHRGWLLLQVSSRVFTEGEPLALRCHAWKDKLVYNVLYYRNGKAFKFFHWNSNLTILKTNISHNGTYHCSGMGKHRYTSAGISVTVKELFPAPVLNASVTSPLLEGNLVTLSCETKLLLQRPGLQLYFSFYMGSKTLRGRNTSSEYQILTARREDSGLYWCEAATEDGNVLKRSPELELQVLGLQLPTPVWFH

[6] = target: T4, FcγRIIb, extracellular domain with …; assay: Biacore SPR; binding relative to GpH7-A5/GpH7-B3/GpL16-k0 (=100)
Protocol: (§1) The heterodimerized antibodies He Abs in which one of the H chains was introduced with an alteration were assayed for their binding activities to each activating FcγR and inhibitory FcγR according to the method described in Example 4. […] The activating FcγRs in FIGS. 26, 27, 28, and 29 are FcγRIa, FcγRIIa (R), FcγRIIa (H), and FcγRIIIa, respectively.
(§2) Analysis of interaction between objective antibody and the FcγR was carried out using Biacore T100 (GE Healthcare). HBS-EP+ (GE Healthcare) was used as the running buffer, and the measurement temperature was set to 25° C. Chips produced by immobilizing the antigen peptide by the amine coupling method to a Series S Sencor Chip CM5 (GE Healthcare), or alternatively, chips produced by allowing preliminarily biotinylated antigen peptides to interact with and immobilize onto a Series S Sensor Chip SA (certified) (GE Healthcare) were used. Antibodies of interest were captured onto an antigen peptide-immobilized chip, and allowed to interact to each FcγR diluted with running buffer. To regenerate and repeatedly use the chip, the antibodies captured on the chip were washed off by reacting 10 mM glycine-HCl, pH 1.5.

[7] = target: T6, FcγRIIIa extracellular domain with C-terminal His tag (human, UniProt P08637 17-208); assay: SPR (Biacore), antibody captured, FcγR as analyte; He Ab binding / GpH7-A5/GpH7-B3/GpL16-k0 binding x 100
T6 construct: extracellular domain; also called FcgRIIIa; 3a; not shown: His tag at the C terminus
T6 sequence (P08637 17-208): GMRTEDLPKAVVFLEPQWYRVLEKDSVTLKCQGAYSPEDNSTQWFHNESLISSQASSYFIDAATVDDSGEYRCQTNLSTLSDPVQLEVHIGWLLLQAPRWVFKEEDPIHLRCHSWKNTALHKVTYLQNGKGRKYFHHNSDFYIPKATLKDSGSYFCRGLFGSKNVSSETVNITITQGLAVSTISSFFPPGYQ
Protocol: as §1, §2

[8] = target: T6, FcγRIIIa extracellular domain with …; assay: SPR (Biacore); ratio of He/Con_3a (FcγRIIIa) to He/Con_2b (FcγRIIb)
Protocol: as §1, §2

Binder	He/Con_2b [4]	He/Con_1a [5]	also measured
B1	–	–	He/Con_2aH [1]: 98 relative, GpH7-A5/GpH7-B3/GpL16-k0 = 100; He/Con_2b [2]: 73.9 relative, GpH7-A5/GpH7-B3/GpL16-k0 = 100; He_2aH/2b (IIaH/IIb) [3]: 1.33
B2	–	–	He/Con_2aH [1]: 108 relative, GpH7-A5/GpH7-B3/GpL16-k0 = 100; He/Con_2b [2]: 74.5 relative, GpH7-A5/GpH7-B3/GpL16-k0 = 100; He_2aH/2b (IIaH/IIb) [3]: 1.45
B3	101 % of control	99 % of control	–
B4	–	–	He/Con_2b (IIb binding) [6]: 1 % of control
B5	–	–	He/Con_2b (IIb binding) [6]: 0.4 % of control
B6	–	–	He/Con_2b (IIb binding) [6]: 12.2 % of control
B7	108 % of control	95.9 % of control	–
B8	123 % of control	99.9 % of control	–
B9	111 % of control	92.2 % of control	–
B10	171 % of control	94.8 % of control	–
B11	110 % of control	93.7 % of control	–
B12	143 % of control	93.2 % of control	–
B13	115 % of control	96 % of control	–
B14	102 % of control	85.3 % of control	–
B15	110 % of control	97.6 % of control	–
B16	114 % of control	98.6 % of control	–
B17	111 % of control	95.6 % of control	–
B18	–	–	He/Con_2aH [1]: 105 relative, GpH7-A5/GpH7-B3/GpL16-k0 = 100; He/Con_2b [2]: 84.3 relative, GpH7-A5/GpH7-B3/GpL16-k0 = 100; He_2aH/2b (IIaH/IIb) [3]: 1.24
B19	–	–	He/Con_2aH [1]: 66.9 relative, GpH7-A5/GpH7-B3/GpL16-k0 = 100; He/Con_2b [2]: 51.6 relative, GpH7-A5/GpH7-B3/GpL16-k0 = 100; He_2aH/2b (IIaH/IIb) [3]: 1.3
B20	–	–	He/Con_2b (IIb binding) [6]: 11.3 % of control
B21	–	–	He/Con_2aH [1]: 108 relative, GpH7-A5/GpH7-B3/GpL16-k0 = 100; He/Con_2b [2]: 73.6 relative, GpH7-A5/GpH7-B3/GpL16-k0 = 100; He_2aH/2b (IIaH/IIb) [3]: 1.47
B22	107 % of control	97.8 % of control	–
B23	197 % of control	97.5 % of control	–
B24	217 % of control	97.6 % of control	–
B25	–	–	He/Con_3a (IIIa binding) [7]: 19.3 relative, control = 100; He_3a/2b (IIIa/IIb) [8]: 2.15 ratio
B26	–	–	He/Con_3a (IIIa binding) [7]: 32.7 relative, control = 100; He_3a/2b (IIIa/IIb) [8]: 3.53 ratio
B27	–	–	He/Con_3a (IIIa binding) [7]: 33.5 relative, control = 100; He_3a/2b (IIIa/IIb) [8]: 4.46 ratio
B28	118 % of control	97.1 % of control	–
B29	101 % of control	97.1 % of control	–
B30	116 % of control	99 % of control	–
